Assay: label from the status in PepcDB records
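Note: failed if final PepcDB status was selected cloned or expressed and not failed if soluble or beyond.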

MSREKIEANREKILNGPIVPTLLVLAYPIIINQLVHVLYNLTDTFWLGKLGRIELSAPGTAWPLVWFLMSIGSGFVVAGFAFVSQYIGAGDYEKANRYAGALYSLLLIFATGMSIFGIVLAPYFLRFMKVSETIFPYALTYTRIIFAGIPFSFTLFAFNFLLRAIGDTKTPVKINIGTIILNIILDPFFIFGWGPFPRLGVAGAAIATMLSNSVGSLIGGYLLFTGKVGIHLTLENLKPDLKFYSRIFRVGLPSSIGDSTSALGFVVLTRVIFTVGRIYGEAHGIKGYEDVAFPTYSITNRLTNFMFAFSDGISMAMGTMVGQNIGARKYERAKEIAEKAMLINFTILSIGTLLFAIFRVPIFKFFVNDPMVIAESKKVVMYFSASLPFFGIFSAVNQVFNSAGHTKKSMVLGIIRLWILRIPLSYWLGVAMKDTAGMWLGMGLSNVIGALIGLAWFLKGSWLRGVIEEHH
protein production: failed

MPKLSVIVPTFNRQVLLEKAIKSIQNQDFKDLEIIVSDDNSSDDTKSVVQNLQKDDDRIKYFLNQNYKQGPNGNKNNGLDQASGEFVTFLDDDDELLSGALSTLMQKANEGYAHVFGNCLIEKEGNLSKEFSGKGLEKDSEISKKDFLMAKFSGEFFSVFKKSLLENKRFNEEFYGNEATLWVNLYKEKSFYIHKAFRIYRIFRQDSVTLGASKNAYRVYLGYLELAKILENELRMSKDKDYKKTCASYYKMAAYYAKLAKNYKALYKCLFKSLSIKINAPALILLILSIIPNNMIEKLSKIRVALCKN
protein production: failed

MTIVVSRKFLAILARAIEGEVATDTIFTLLGLKVVVTLASLLPASVFLSVLMVLGRMYRDNEMTVFACAGVGPLRIYRSILLFAGPVCVLGAFLSLQAMPWSERLSQELISKDEKGADVRGIKAGRFNEFSQGDVVLYAEQLNTDKTMSRVFAQSRRGDETGIVIAESGHMEINDAGDHFVVLNNGRRYQGVPGRADFVLNEFQAYGVRINPPEGSQAALKREAADSLHLWMSGRPRELAELQRRLAVPLGTFTLTLLAVPIARTSPRGGVWGNLISAFLIYIIYENLQKISQGLLATGKLSVWTSYAGIYAVMLLATSVLLARNSGWRWVRDTALGRR
protein production: failed

MKAALHNLGCKVNSYETEAMEQMLIAAGYEIVPFCEDEKADVYVINTCSVTNIADRKSRQMLHKAKKQNPNAIVVAAGCYVQARGDELAADDMVDIVIGNNRKNRLVEIINDYIGNNSNNEAVVDIAKTHEYEELNIYDVCEHTRAYIKVQDGCNQFCSYCIIPYTRGRVRSRRPEDVTAEVRRLVEKGYKEFILAGIHLSSYGIDFEAPCDEAVDYRAANMPGSRLLELIEAVCSVEGVKRLRLGSFEPRILTEAFVKRMAELEPVCPHFHISLQSGCDATLKRMNRRYTADEYEESCKLLRKYFPNAAITTDVIVGFPQETDEEFAITKEYLERIHFYEMHVFKYSRRKGTAADRMDGQVPEPVKTARSAGLLELEKRMSREYRESALGSIQEVLFEEVAGTCDDCGTSVITGHTKTYINVHVKLPADMSLEYINKICNVKLEHLSDDGEWVNGTLCG
protein production: failed

MIEFTALDDLSLLRESVSLECKLAQGRDGKGALPDDFWPTYSAMANTDGGIVILGVRERKGQFEVAGIENPDKLRTELFNHLNNRQKVSVNLLRDEDVRAWPVEGKTLLVVEIPRARRQQRPVYLRGNPLGGHTYRRLHEGDRPLPDE
protein production: failed

MPHLVIEATANLRLETSPGELLEQANAALFASGQFGEADIKSRFVTLEAYRQGTAAVERAYLHACLSILDGRDAATRQALGESLCEVLAGAVAGGGEEGVQVSVEVREMERASYAKRVVARQR
protein production: not failed

MVQLIKKYEDLLCLLDELIKNESTFRWDEFYLERERDVPFFVLAPDEQLVEYVCTGLIESGKVLELGCGPGRNAIYLAENHFEVDVVDLSQKAIDWAMDRANERKASIRFIRENIFNLNVNKASYDLVYDSGCFHHIPPHRRMDYIHLVTTALKPGGHFGLTCFIENGPLGGAAISDLDVYRQQSLQGGLGFTEQKLIQIFDDFAVIEIRKMKEYPNDSSRFGVNGLLTALFQKKKVEKVKLEHHHHHH
protein production: failed

RVGINQLVQHPALDAATTGFKEAFEEAGVDVTFDEQNANGEQGTALTISQQFASDNLDLVLAVATPAAQATAQNITDIPVLFTAVTDAVSAELVDSNEAPGGNVTGTSDIAPIEQQLELLQQLVPDAKSIGIVYASGEVNSQVQVDEVTKAAEPLGLSVNTQTVTTVNEIQQAVEALGDVDVIYVPTDNMVVSGISSLVQVAEQKQIPVIGAESGTVEGGALATLGIDYTELGRQTGEMALRILQDGEDPATMPVETATEFTYVINEDAAERQGVEIPQEILDKAERV
protein production: not failed

MVSFDHATLGYITFVLMNFSMLSGAFIFLSKKKQHWIKVHLLVSILTYIFMVWTIWVVR
protein production: failed

MQLNQTNTPFNEEQLALINQLLPMLTPEQQHWLSGYLLNPATTSVSDNKTDIQENEAGITETETSTSTDQSVSEPVSASTEPLDVHVLYGTETGNAEEIAETFETKLKSQNLNVHLWDMDDFPRDSLPEVEHLFIICSTQGVGEPPINALDLYDYLHGDDAPQLDQVNFAVLALGDQDFPDFCQAGKDFDYILGQLGANRVADRVDCDFDYEETAEQWITNMLELLTQASSNTNEETPSVENEDVTIEEPQAPYSKSNPFQAEVLKNTILTQPEASREVRHLEISLEGYREAYEPGDSLVVIPQNDPVLVNQLIDALNWDAETPIQMNDSDSMRSLKEALTHDFEIAKLTPVLMKNAAELLGNPMLNANIQKSEWVQNYIYGKDVIDLIRDFTPVALEPNMLPQLLRKLPPREYSIASSNKVNPNSVHITVRVVKYEAHRRERFGVCSVQLADRTSVGDKLPVYLKKNPNFKFPYDTETPVIMIGAGTGIAPYRAYLQERAYLNLKGEQWLIFGNQNYHHDFLYKDDLEQWLEEGVLSKLDLAFSRETENKIYVQHRIEENSAEFYKWIQAGATIYLCGNKDEMASGVHESLIKVLIKEGNLDETEAEAYLTEMIKNQRYQRDVY
protein production: failed

MFPHLALLNAHKRMHTDGEQQQQQQHNAQAGGDSIAVVSAQGLVQAQNIIGNGQMGQIQIVSSDTLEPVQQSVMQQQQHESKASKCINCGSSMLQQSKRKGPKQVRCESCMQAEQTAQQQQQLFVAQDG
protein production: failed

MASIQKLGNGWRYRVSYKDAGKYKTKTKGGFRTKKECELAAAELEKKLHVGMDISAGDRLFAEYMRTWFELYQNGKHSPEHDRNIERSVKLVEEHFPGVKMKELTREMYQKFINEISPKYATDTVKKRHTYIKACLQEAIQEGIIFKDPTYKVIIKGKKDTKNEELKYLNFNEVQKLVAETKKDLRPRYISRYVILFAIATGARFSEIMGITWDCVDFKNRTITINKTWDFKDTNDFSDTKNYASKRTITIDTETVDMLQTLKSEQNKKALQTGLRNKKNLVFVNTKMQLVSNNAVNKTLRTLCKAAKIKEITCHGLRHTHASMLLYKGVNIKYISRRLGHKDIVTTLQTYSHILDEMEQVESRVVDDTMKEIHGAKFVQKNF
protein production: failed

MNRARDWLEQARHNLRHAQGSLGLGDYAWACFAAQQAAEAALKGLHLARGQVAWGHSILDLLADLPEDVDVPEDLVEAAKVLDKYYIPTRYPDAHPAGPAARHYTRLEAEEALDLAQKILAFVEEKL
protein production: not failed

MAKILEGPAMKLFNKWGIPVPNYVVIMDPKRLAQLGEANKWLRESKLVVKAHEAIGGRFKLGLVKIGLNLDEAIQASREMLGAKVGTAEVRQVIVAEMLDHDAEFYVSIIGNRDGAELLISKYGGVDIEDNWDSVRRIQIPLDEHPTIEQLTALAKEAGFEGEIAERVGKICSRLVLCFDNEDAQSIEINPLVIRKSDMRFAALDAVMNVDWDARFRHADWDFKPVSEIGRPFTEAEQQIMDIDSRIKGSVKFVEVPGGEIALLTAGGGASVFYADAVVARGGTIANYAEYSGDPPDWAVEALTETICRLPNIKHIIVGGAIANFTDVKATFSGIINGLRESKSKGYLEGVKIWVRRGGPNEAQGLAAIRKLQEEGFDIHVYDRSMPMTDIVDLALKS
protein production: not failed

MEQQHPTIHTLKIETEFFKAVKERRKTFEIRKNDRNFQVGDILILEEYMNGMYLDDECEAEVIYITDYAQREGYVVLGIELH
protein production: not failed

MGNNSESKGSASDSKGAETFTYKAENGNVKIPKHPKRVVVMADGYYGYFKTLGINVVGAPENVFKNPYYKGKTNGVENIGDGTSVEKVIDLNPDLIIVWTTQGADIKKLEKIAPTVAVKYDKLDNIEQLKEFAKMTGTEDKAEKWLAKWDKKVAAAKTKIKKAVGDKTISIMQTNGKDIYVFGKDFGRGGSIIYKDLGLQATKLTKEKAIDQGPGYTSISLEKLPDFAGDYIFAGPWQSGGDDGGVFESSIWKNLNAVKNGHVYKMDPIGFYFTDPISLEGQLEFITESLTKLEHHHHHH
protein production: not failed

MDVSNKDAKRTDTIILANFDPITKEAKLISIPRDTRVKIGGKSQKINAAYPIGGEKLVKQLVGNILGVKVDYVVKVDYEGFRGIIDAIGGIDMYIEQDMNYDDPGQDLHIHFNKGETVHLDGKKAEEFFRWRKNNDGTGLVNGDVDRIKNQQKFINAVIDKVLSVSTITKIDSIAEILNKNIETNIPLDVTVAYGLKGLETDKNNIKMMTLPGEGKYVGNVSYYIPDEKATKELRSQLNSSNLSGRKNVIPSAARGDLSIKVLNCTKINGLAANVQKQLNENGYDKVDLEHHHHHH
protein production: not failed

MEVQETRVQTDRVLTIPNILSMARLVGVPVFLWLILRPEFGGPKSDGWALLVLALSGISDYLDGKLARRWNQISSLGRLLDPAADRLYILSTLVGLTWREILPIWLTAALLARELVLLVMVGILRRHGYPPPQVNFLGKAATFNLMYAFPLLLLSDSSGWIGSLAAIFGWAFAGWGTTLYWWAGVLYMVQVRRLVRADAVAD
protein production: failed

MNRKILVTGATGSNGTEIVKRLAAKNVQVRAMVRDFDRAKKIAFPNVEVVEGNFDRPETLLEALAEVDRAFLLTNSTERAEAQQLAFVDAARQNGVKHIVKLSQFAADAHSPVRFLRYHAAVEAAIQGSGMTYTFLRPNLFMQGLLNFQSTITSQNAFYAAISDAKVSVVDVRDIADVAVVALTETEHEGKIYNLTGPQALTHAEMAEQLSAALNRQIAFVDIPSEVMRDQLLNIGMPPWQADGVIEDYAHYRRNEAAAVSSGIQDAIGKEPRSFNTFACDYAAMFG
protein production: failed

MAKAVRIGAEGYKLKLDGAVQEIDGRSVVLVDVDSITPLMFGGSMKEKAKLLDAKFLRKYYEENKDFFFLSTREEKKMFVTLQLAREYAELVDDQFLRGFFEKALESAQKAF
protein production: not failed

MIALPAWLTDERLSEDIEPLLRQTDNESLERLAAEAQAVTLRRFGRVISLYTPLYLSNFCSSGCVYCGFASDRRSPRRKLDTDEIEKELLAMKALGVSDVLLLTGERTNSVGFDYLRRAVDIAARHMPRVAVEAFPMSVAEYRGLAECGCTGLTIYQETYDPDHYRELHRWGPKQDFLERLETPERAITGGIRSVGIGALLGLSEPVGEALAVLRHARYLCKTYWKAGVTVSFPRIRPQEGGFQPSFTVSDRFLARMIFAFRIGMPDVDLVLSTRESSNFRDGMAGLGITRMSIASRTTVGGYVEKETAGASQFEVSDNRSVEAFCAALRAKDLEPVFKNWDAAYNNPLPAEECT
protein production: failed

MKQKNVYIVIGFMLFALFFGAANLIYPAFLGIYSGHQILWSIIGFCLTGVSLPLLGVIAVAKSGSGDVESLARPISKWYAIFYSSILYLSIGPFFAIPRTGATSFSVGIAPILGDNTTNKAIYAILFFGLSYFLAIKPSKLAENIGKFLTPTLLVVISILVIASFVHPAGNYGDAFNAGVGVNNAFKDFPFIAGLIQGYGTMDALASLVFAILVIEATKQFGAKTDKEMTKITLISGAIAILLLALVYIFVGRIGATSQSLFPFIDGSFTLHGNPVNGGQILSHASRFYLGGIGQAFLAVVIFLACLTTSTGLITSSAEYFHKLVPALSHIAWATIFTLLSAFFYFGGLSVIINWSAPVLFLLYPLTVDLIFLVLAQKCFNNDPIVYRTTIGLTFIPAIFDALLTLSQMTGLFHLPEAVVTFFQKTVPLGQFSMGWIIFAAIGFLIGLILSKTKKS
protein production: failed
